Measurements from patent US20220259281A1 (SHATTUCK LABS, published 2022).

Key:
human PD-L1 = molecular target: T1, human PD-L1 (human, UniProt Q9NZQ7 19-290); assay: flow cytometry binding to CHOK1/hPDL1 cells; supernatant as % of total reaction volume
T1 construct: whole, on cells; also called hPD-L1; PD-L1 on CHO-K1/hPD-L1 cells
Description: (§1) In another experiment, the CHO-K1/hPD-L1 cells were incubated with increasing amounts of the neat culture supernatant of the Jurkat parental or Jurkat/hPD-1-Fc-OX40L cells produced as discussed in Example 2. Binding was detected using flow cytometry and the MFI was calculated and plotted as a function of the amount of the neat culture supernatant of Jurkat parental or Jurkat/hPD-1-Fc-OX40L cells. […] Further, the CHO-K1/hOX40 cells were incubated with increasing amounts of the neat culture supernatant of the Jurkat parental or Jurkat/hPD-1-Fc-OX40L cells produced as discussed in Example 2. Binding was detected using flow cytometry and the MFI was calculated and plotted as a function of the amount of the neat culture supernatant of Jurkat parental or Jurkat/hPD-1-Fc-OX40L cells.

human OX40 = molecular target: T2, human OX40 (human, UniProt P43489 29-277); assay: flow cytometry binding to CHOK1/hOX40 cells; supernatant as % of total reaction volume
T2 construct: whole, on cells; also called hOX40; OX40 on CHO-K1/hOX40 cells
T2 sequence (looked up): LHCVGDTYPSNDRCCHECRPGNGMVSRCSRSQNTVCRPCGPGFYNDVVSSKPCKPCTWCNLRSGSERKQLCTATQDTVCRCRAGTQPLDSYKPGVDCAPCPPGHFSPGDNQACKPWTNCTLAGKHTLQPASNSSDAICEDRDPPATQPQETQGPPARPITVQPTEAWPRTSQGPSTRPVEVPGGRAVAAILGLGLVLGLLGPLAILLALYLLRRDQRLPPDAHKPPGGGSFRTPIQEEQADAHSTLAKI
Description: as §1

anti-human PD-1 antibody = assay: MSD dual binding assay; Coat: anti-hPD1, Detect: anti-hOX40L; 3-fold dilution series drawn as bars
Description: Concentrated, de-salted culture supernatant was prepared as follows: 40 million Jurkat parental cells, Jurkat cells expressing human PD-1-Fc-4-1BBL chimeric protein (Jurkat/hPD-1-Fc-4-1BBL), Jurkat cells expressing human PD-1-Fc-OX40L chimeric protein (Jurkat/hPD-1-Fc-OX40L), or Jurkat cells expressing human CSF1R-Fc-CD40L chimeric protein (Jurkat/hCSF1R-Fc-CD40L) were cultured in 60 mL of media for 48 hours. After this, the media were harvested and concentrated 50-75× using AMICON-15 50K columns. Concentrated supernatant was desalted over a ZEBA desalting column or directly dialyzed in PBS and used in experiments. The resulting supernatant was also termed “neat” supernatant.
The PD-1-Fc-OX40L chimeric protein harbors the extracellular domain of PD-1 protein domain at or near the N-terminus and the extracellular domain of OX40 Ligand (OX40L) protein domain at or near the C-terminus. To understand whether the extracellular domains of PD-1 and OX40L can simultaneously bind to respective antibodies, an anti-human PD-1 antibody was coated on a plate. Three-fold serial dilutions neat culture supernatants of Jurkat parental cells or Jurkat/hPD-1-Fc-OX40L cells were added to the plate. […] The plate was incubated to allow capture of any protein by the plate-bound anti-human PD-1 antibody. […] Binding was detected using the MSD platform.

[1] = molecular target: T3, universal-heterologous chimeric protein specific anti-Fc antibody; assay: sandwich ELISA: capture by anti-Fc antibody, detection by biotinylated anti-human OX40L antibody; Abs450nm against log[Agonist], nM, nM is from the x axis
[2] = molecular target: T3, universal-heterologous chimeric protein …; assay: sandwich ELISA: capture by anti-Fc antibody, detection by biotinylated anti-human OX40L antibody; concentrated culture media, the protein concentration in it is not given so the x values are nominal; the fitted value lies beyond the highest point shown (log about 2.8), nM is from the x axis

T1 sequence (Q9NZQ7 19-290): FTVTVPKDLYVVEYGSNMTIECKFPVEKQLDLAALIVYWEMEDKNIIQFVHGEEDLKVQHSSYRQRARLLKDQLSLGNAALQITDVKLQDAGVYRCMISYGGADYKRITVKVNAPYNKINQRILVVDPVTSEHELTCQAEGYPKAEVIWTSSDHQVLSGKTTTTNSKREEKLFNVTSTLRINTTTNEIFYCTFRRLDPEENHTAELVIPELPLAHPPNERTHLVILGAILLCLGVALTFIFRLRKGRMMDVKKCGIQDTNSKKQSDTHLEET

B1: human PD-1-Fc-OX40L heterologous chimeric protein (Fc fusion)
chain: LDSPDRPWNPPTFSPALLVVTEGDNATFTCSFSNTSESFVLNWYRMSPSNQTDKLAAFPEDRSQPGQDCRFRVTQLPNGRDFHMSVVRARRNDSGTYLCGAISLAPKAQIKESLRAELRVTERRAEVPTAHPSPSPRPAGQFQSKYGPPCPPCPAPEFLGGPSVFLFPPKPKDQLMISRTPEVTCVVVDVSQEDPEVQFNWYVDGVEVHNAKTKPREEQFNSTYRVVSVLTVLHQDWLSGKEYKCKVSSKGLPSSIEKTISNATGQPREPQVYTLPPSQEEMTKNQVSLTCLVKGFYPSDIAVEWESNGQPENNYKTTPPVLDSDGSFFLYSRLTVDKSRWQEGNVFSCSVLHEALHNHYTQKSLSLSLGKIEGRMDQVSHRYPRIQSIKVQFTEYKKEKGFILTSQKEDEIMKVQNNSVIINCDGFYLISLKGYFSQEVNISLHYQKDEEPLFQLKKVRSVNSLMVASLTYKDKVYLNVTTDNTSLDDFHVNGGELILIHQNPGEFCVL
notes: Tested as secreted protein in Jurkat supernatant and as purified protein; also called hPD-1-Fc-OX40L; hPD1-Fc-OX40L
- binding result (human PD-L1): binds
- binding result (human OX40): binds
- EC50 (read off the curve) (anti-human PD-1 antibody): ~0.08 µg/mL
- EC50 [1]: 37.3 nM
- EC50 [2]: 2690 nM
